Data: patent publication US20210000909A1

Molecular target: PDZ1/2 domain (UniProt P78352)
Sequence (P78352 61-249 limits assumed): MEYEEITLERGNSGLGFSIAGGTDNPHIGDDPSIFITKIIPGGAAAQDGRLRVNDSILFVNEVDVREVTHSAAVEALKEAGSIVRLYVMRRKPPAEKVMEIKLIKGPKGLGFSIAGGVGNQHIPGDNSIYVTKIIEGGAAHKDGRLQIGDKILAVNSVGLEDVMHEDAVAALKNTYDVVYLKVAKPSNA

control chimeric peptide NA-1
Kd: 75.3 nM
